Consider one molecule from patent publication US20080242590A1, “New Method 706” (ASTRAZENECA AB, priority 2007, published 2008).

A short description of series [1]: Pharmacokinetics of Fc-Nep and commercial neprilysin, single i.v. dose (Example 20). It is filed as in vivo. Particulars: mice, single i.v. dose 1 mg/kg. As for the experimental part:
The Fc-Nep fusion protein was developed to improve the pharmacokinetic entities of neprilysin with the specific aims to reduce clearance and improve half-life. To test this we have administrated a single i.v. dose of either 1 mg/kg commercial neprilysin or 1 alternatively 5 mg/kg in-house produced Fc-Nep to mice. At set times after dosing blood samples were drawn from the tail vein or by heart puncture at termination. Upon sampling into tubes containing EDTA the aliquots were put on ice. Plasma was prepared by centrifugation within 15 minutes of sampling (typically 1500 g at 4° C. for 10 min) and immediately frozen. Plasma concentrations of Fc-Nep and neprilysin were determined via immunoassays using either anti-Nep for commercial neprilysin or anti-human IgG for Fc-Nep as capture antibodies while both substances were detected via an anti-Nep antibody. Pharmacokinetic parameters are calculated using a software package (WinNonlin, Pharsight Corporation, USA) and in this example experiment the calculated half-life had increased from about 5 minutes for Nep to about 20 hours for Fc-Nep.

The next series deals with amyloid β 1-40 peptide. Nature of the series: Degradation of amyloid β 1-40 peptide by Fc-Neprilysin and Neprilysin in buffer. It is filed as biochemical. The note with it: enzyme 2.4 μg/ml, Aβ 1-40 300 nM, 2.5 hours at 37° C., buffer. As for the experimental part:
The assay is measuring the remaining amyloid β 1-40 peptide (Bachem) concentration following its incubation in the presence of Neprilysin (R&D Systems) or Fc-Neprilysin with or without Neprilysin inhibitor. 100 μl of reaction mixture containing amyloid β 1-40 peptide (final concentrations, 300, 30 or 3 nM) and/or Neprilysin (2.4 μg/ml), and/or Fc-Neprilysin construct (2.4 μg/ml), and/or Phosphoramidone (10 μM) was incubated in a round bottom 96-well polypropylene plate at 37° C. for 2.5 hours. Following incubation, 10 μl of reaction mixture was transferred into Thermo-Fast© 96-well PCR plate (Abgene, UK) containing 10 μl of Standard Diluent (Gyros AB). Amyloid β 1-40 concentration was determined using Gyrolab Workstation LIF system. Biotinylated anti-amyloid β antibodies (6E10; final concentration 50 μg/ml; Signet) were used as capturing antibodies and polyclonal anti-human amyloid β antibodies (44-348; Biosource) labeled with Alexa Fluor 647 dye (Molecular probes) were used as detection antibodies. Amyloid β 1-40 peptide concentration measurement performed according to the manufacturers protocol using Gyrolab Bioaffy™ Software Package Version 1.8 (Gyros AB). Amyloid β 1-40 peptide degradation by Neprilysin was calculated as a percentage of Amyloid β 1-40 peptide left after incubation in the presence of Neprilysin compared to the amyloid β 1-40 peptide concentration in the absence of Neprilysin.

Series [2] concerns amyloid β peptide 1-40 (Aβ40). Nature of the series: Degradation of Aβ40 in human plasma (Example 18). Particulars: 5 μg/ml, 4 hours, 37° C. The format is biochemical. As for the experimental part:
Blood from eight individuals (5 females and 3 males) were collected into pre-chilled heparin-plasma tubes at the healthcare centre (AstraZeneca) at two different time points. Plasma was prepared by centrifugation for 20 min at 4° C. at 2500×g within 30 minutes of sampling. Plasma samples were transferred to pre-chilled polypropylene tubes and immediately frozen and stored at −70° C. prior to use. His-Fc-Nep (6 μg/ml) or 5 μg/ml recombinant human Neprilysin (R&D systems) with corresponding vehicles (50 mM Tris-HCl, 150 mM NaCl pH 7.5 or 25 mM Tris-HCl, 0.1 M NaCl pH 8.0) in presence or absence of 10 μM phosphoramidon was incubated with a pool of plasma at 37° C. for 0 and 4 h. A final concentration of 4.7 mM EDTA was added into the tubes before the amount of Aβ40 was analysed using a commercial ELISA kit obtained from Biosource. His-Fc-Nep (6 μg/ml) and commercial human recombinant neprilysin (5 μg/ml) degraded Aβ40 with 33% and 70%, respectively, compared to vehicle after 4 hours incubation at 37° C. The Aβ40 levels were unaffected after addition of 10 μM phosphoramidon (FIG. 4).

Series [3] has as its system amyloid β peptide 1-40 (Aβ40). Nature of the series: Ex-vivo degradation of Aβ40 in guinea pig plasma. It is filed as biochemical. Particulars: 5 μg/ml, 4 hours, 37° C. As for the experimental part:
Degradation of amyloid β peptide 1-40 (Aβ40) and amyloid β peptide 1-42 (Aβ42) by neprilysin was investigated using heparinized plasma from male Dunkin Hartley guinea pigs, weighing 250-300 g (HBLidkoping ka). Blood was withdrawn from anaesthetized guinea pigs by heart puncture. The blood were collected into prechilled heparin-plasma tubes and centrifuged for 10 min at 4° C. at 3000×g within 20 minutes of sampling. Plasma samples were transferred to pre-chilled polypropylene tubes and immediately frozen on dry ice and stored at −70° C. prior to use. The experiments were performed on a pool of plasma from seven guinea pigs. His-Fc-Nep (6 μg/ml or 208 μg/ml) or 5 μg/ml recombinant human Neprilysin (R&D systems) with corresponding vehicles (50 mM Tris-HCl, 150 mM NaCl pH 7.5 or 25 mM Tris-HCl, 0.1 M NaCl pH 8.0) were incubated with a pool of plasma in presence or absence of 10 μM phosphoramidon (BIOMOL) at 37° C. for 0 and 4 h. A final concentration of 4.7 mM EDTA was added into the tubes before the amount of Aβ40 and Aβ42 was analysed using a commercial ELISA kit obtained from Biosource (Aβ1-40) or Innogenetics (Aβ1-42).

B1: Recombinant human Neprilysin: commercially available Recombinant Human Neprilysin (R&D Systems), positive control (protein)
chain: YDDGICKSSDCIKSAARLIQNMDATTEPCTDFFKYACGGWLKRNVIPETSSRYGNFDILRDELEVVLKDVLQEPKTEDIVAVQKAKALYRSCINESAIDSRGGEPLLKLLPDIYGWPVATENWEQKYGASWTAEKAIAQLNSKYGKKVLINLFVGTDDKNSVNHVIHIDQPRLGLPSRDYYECTGIYKEACTAYVDFMISVARLIRQEERLPIDENQLALEMNKVMELEKEIANATAKPEDRNDPMLLYNKMTLAQIQNNFSLEINGKPFSWLNFTNEIMSTVNISITNEEDVVVYAPEYLTKLKPILTKYSARDLQNLMSWRFIMDLVSSLSRTYKESRNAFRKALYGTTSETATWRRCANYVNGNMENAVGRLYVEAAFAGESKHVVEDLIAQIREVFIQTLDDLTWMDAETKKRAEEKALAIKERIGYPDDIVSNDNKLNNEYLELNYKEDEYFENIIQNLKFSQSKQLKKLREKVDKDEWISGAAVVNAFYSSGRNQIVFPAGILQPPFFSAQQSNSLNYGGIGMVIGHEITHGFDDNGRNFNKDGDLVDWWTQQSASNFKEQSQCMVYQYGNFSWDLAGGQHLNGINTLGENIADNGGLGQAYRAYQNYIKKNGEEKLLPGLDLNHKQLFFLNFAQVWCGTYRPEYAVNSIKTDVHSPGNFRIIGTLQNSAEFSEAFHCRKNSYMNPEKKCRVW
As for B1, in series [1], the calculated half-life entry is recorded as “about 5 minutes”. Moreover, the “Amyloid β 1-40 peptide degraded” value with amyloid β 1-40 peptide came out at 64%. Besides, the figures for the “Aβ40 degraded compared to vehicle” value in series [2] and in series [3] were 70% and 49%, respectively.
